Laboratory results published in PMC6138665.

Experiments:
[1] = target: LC3B (UniProt Q9GZQ8); assay: NMR HSQC titration of 15N-LC3B; conditions: reference: unphosphorylated peptide P0; sites S1014
[2] = target: LC3A (UniProt Q9H492); assay: ITC, peptide titrated into LC3A; conditions: reference: unphosphorylated peptide P0; sites S1014
[3] = target: LC3C (UniProt Q9BXW4); assay: ITC, peptide titrated into LC3C; conditions: reference: unphosphorylated peptide P0; sites S1014
[4] = target: GABARAP-L1 (UniProt Q9H0R8); assay: ITC, peptide titrated into GABARAP-L1; conditions: reference: unphosphorylated peptide P0; sites S1014
[5] = target: GABARAP-L2 (UniProt P60520); assay: ITC, peptide titrated into GABARAP-L2; conditions: reference: unphosphorylated peptide P0; sites S1014
[6] = target: LC3B (UniProt Q9GZQ8); assay: co-immunoprecipitation of Myc-AMBRA1, LC3 blot; conditions: reference: Myc-AMBRA1 wild type; sites S1014

Sequence of LC3C (Q9BXW4 whole entry, looked up): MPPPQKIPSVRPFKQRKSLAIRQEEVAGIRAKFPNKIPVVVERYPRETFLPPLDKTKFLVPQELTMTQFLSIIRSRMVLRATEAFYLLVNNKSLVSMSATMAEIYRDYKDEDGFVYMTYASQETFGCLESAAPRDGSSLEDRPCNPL
Sequence of GABARAP-L1 (Q9H0R8 whole entry, looked up): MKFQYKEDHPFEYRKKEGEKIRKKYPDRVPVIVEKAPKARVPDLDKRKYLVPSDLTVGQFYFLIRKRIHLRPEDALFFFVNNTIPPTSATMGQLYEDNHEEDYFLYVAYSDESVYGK
Sequence of GABARAP-L2 (P60520 whole entry, looked up): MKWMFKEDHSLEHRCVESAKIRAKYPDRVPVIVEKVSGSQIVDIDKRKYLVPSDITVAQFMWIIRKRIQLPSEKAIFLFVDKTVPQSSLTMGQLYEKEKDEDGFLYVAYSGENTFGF

binding against the reference [1]	binding against the reference [2]	binding against the reference [3]	binding against the reference [4]	binding against the reference [5]	binding against the reference [6]	Substance
stronger	stronger	stronger	stronger	stronger		AMBRA1 AMBRA1-LIR (from UniProt Q9C0C7-3) pS1014 peptide P1
					weaker	AMBRA1 (from UniProt Q9C0C7-3) S1014A
